# Source: PMC3713010, “Sox2 Transcriptionally Regulates Pqbp1, an Intellectual Disability-Microcephaly Causative Gene, in Neural Stem Progenitor Cells”
# T1: Oct6 DNA-binding domain (BD-Oct6) (Mus musculus (B6), UniProt P21952 317-416)
# T1 sequence: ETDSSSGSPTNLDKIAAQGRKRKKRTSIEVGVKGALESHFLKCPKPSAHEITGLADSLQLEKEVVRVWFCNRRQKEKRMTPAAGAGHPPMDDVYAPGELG
# T2: Brn2 DNA-binding domain (BD-Brn2) (Mus musculus (B6), UniProt P31360 336-435)
# T2 sequence: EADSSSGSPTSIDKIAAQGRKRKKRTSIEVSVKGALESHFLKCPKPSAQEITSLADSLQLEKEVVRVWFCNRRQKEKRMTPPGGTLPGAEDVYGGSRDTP
# B1: 54 (dsDNA)
# DNA 1: GGGGGAGGTGTTAAGTGTGGAGTCGTGAGAACAACAATCCAGATAGCCCCC
# DNA 2: GGGGGCTATCTGGATTGTTGTTCTCACGACTCCACACTTAACACCTCCCCC
# B2: 36 (dsDNA)
# DNA 1: GGGGGTGCATACATTTGTAATTCATTTAGGTGGTTTTCCCCC
# DNA 2: GGGGGAAAACCACCTAAATGAATTACAAATGTATGCACCCCC
# B3: 48 (dsDNA)
# DNA 1: GGGGGATGAAATGGCTAAATCCTTTTTTTGTTGTTTGTTCCCCC
# DNA 2: GGGGGAACAAACAACAAAAAAAGGATTTAGCCATTTCATCCCCC
# B4: 47 (dsDNA)
# DNA 1: GGGGGCCACCATCTGTAATGTCCTTGGCACAATAAAACCAACCCCC
# DNA 2: GGGGGTTGGTTTTATTGTGCCAAGGACATTACAGATGGTGGCCCCC
# B5: 53 (dsDNA)
# DNA 1: GGGGGTGCTTGTGACAAATCTGTCAATTTCTGGTGGGGGCCCCCC
# DNA 2: GGGGGGCCCCCACCAGAAATTGACAGATTTGTCACAAGCACCCCC
# B6: 45 (dsDNA)
# DNA 1: GGGGGAAATGTGCTTTATTTCACAAAATCAACAACCCCC
# DNA 2: GGGGGTTGTTGATTTTGTGAAATAAAGCACATTTCCCCC
# B7: 37 (dsDNA)
# DNA 1: GGGGGTTTCATGGTTTGTTAGCTATTCTCTTATCACCCCCC
# DNA 2: GGGGGGTGATAAGAGAATAGCTAACAAACCATGAAACCCCC
# B8: 31 (dsDNA)
# DNA 1: GGGGGTCCTCTCCTTTGTTTTGTCCTCACACCCCCAGCTGACCAGGTGCCCCC
# DNA 2: GGGGGCACCTGGTCAGCTGGGGGTGTGAGGACAAAACAAAGGAGAGGACCCCC
# B9: 52 (dsDNA)
# DNA 1: GGGGGGGGGCAGCACAAATATTTCTGTGAATGTACCCCC
# DNA 2: GGGGGTACATTCACAGAAATATTTGTGCTGCCCCCCCCC
# B10: 46 (dsDNA)
# DNA 1: GGGGGTTATTTCACAAAATCAACAAATCAAAAAGCCCCC
# DNA 2: GGGGGCTTTTTGATTTGTTGATTTTGTGAAATAACCCCC
# B11: 39 (dsDNA)
# DNA 1: GGGGGTTCAGGTTTTTGTAGGAACTTAAATTTTATGATTAGCCCCC
# DNA 2: GGGGGCTAATCATAAAATTTAAGTTCCTACAAAAACCTGAACCCCC
# B12: 50 (dsDNA)
# DNA 1: GGGGGTTTGTAAGTTTGTACCATTTGGCCTCAGCCCCCCC
# DNA 2: GGGGGGGCTGAGGCCAAATGGTACAAACTTACAAACCCCC
# B13: 38 (dsDNA)
# DNA 1: GGGGGAGGTTTTGATGATTATGAACAAAGCTTCTGTCCCCC
# DNA 2: GGGGGACAGAAGCTTTGTTCATAATCATCAAAACCTCCCCC
# B14: 42 (dsDNA)
# DNA 1: GGGGGGCTTCAGCATTGTGAAATTGAATCATTGCCCCCC
# DNA 2: GGGGGGCAATGATTCAATTTCACAATGCTGAAGCCCCCC
# B15: 34 (dsDNA)
# DNA 1: GGGGGTTGTTCCCTTTGACTTCTTGTGACTTTAACAAATTCTAAAGCCCCC
# DNA 2: GGGGGCTTTAGAATTTGTTAAAGTCACAAGAAGTCAAAGGGAACAACCCCC
# B16: 40 (dsDNA)
# DNA 1: GGGGGTTTGTCATTTTGTAGTGCTAGGAATTAAACCCATGTCCCCC
# DNA 2: GGGGGACATGGGTTTAATTCCTAGCACTACAAAATGACAAACCCCC
# B17: 30 (dsDNA)
# DNA 1: GGGGGTGTCTTCTCCCTAATGATTGTTGTATGACCCCCC
# DNA 2: GGGGGGTCATACAACAATCATTAGGGAGAAGACACCCCC
# B18: 44 (dsDNA)
# DNA 1: GGGGGAAACCATGGGGGGTGGGCTGTAAACACAAAAAGGATTCCCCCC
# DNA 2: GGGGGGAATCCTTTTTGTGTTTACAGCCCACCCCCCATGGTTTCCCCC
# B19: 49 (dsDNA)
# DNA 1: GGGGGCTCTCTGATTTGTGAGTATTGACAGAGAATCCCCC
# DNA 2: GGGGGATTCTCTGTCAATACTCACAAATCAGAGAGCCCCC
# B20: 43 (dsDNA)
# DNA 1: GGGGGAGGAGTGCTTTGTAAAAATAACTTCTATGTCCCCC
# DNA 2: GGGGGACATAGAAGTTATTTTTACAAAGCACTCCTCCCCC
# B21: 33 (dsDNA)
# DNA 1: GGGGGATAGTACATTTGTTGTCATTAACAAATCAGTCCCCC
# DNA 2: GGGGGACTGATTTGTTAATGACAACAAATGTACTATCCCCC
# B22: 41 (dsDNA)
# DNA 1: GGGGGTTTGGAAAACAAAACATTAACCAAAATTTTCCCCC
# DNA 2: GGGGGAAAATTTTGGTTAATGTTTTGTTTTCCAAACCCCC
# B23: 51 (dsDNA)
# DNA 1: GGGGGGTCCGGCTTTTGTTGATTTGCTTATCTATCCCCC
# DNA 2: GGGGGATAGATAAGCAAATCAACAAAAGCCGGACCCCCC
# B24: 35 (dsDNA)
# DNA 1: GGGGGGTTTCTCTAATTAATAGACTTCATTGTTCAAAACTATTTTACATTTGTTCCCCC
# DNA 2: GGGGGAACAAATGTAAAATAGTTTTGAACAATGAAGTCTATTAATTAGAGAAACCCCCC
# B25: 32 (dsDNA)
# DNA 1: GGGGGCGTTGCACACAAACCTTAATTTTCCAATCTATTCCCCC
# DNA 2: GGGGGAATAGATTGGAAAATTAAGGTTTGTGTGCAACGCCCCC
# Target: T1, Oct6 DNA-binding domain (BD-Oct6)
# Test: EMSA; 10% glycerol, 20 mM HEPES pH 7.8, 45 mM KCl, 10 mM NaCl, 1 mM EDTA, 1 mM DTT, 0.2 ug/uL BSA, 0.1% NP-40, 50 ng poly-dIdC; 20 ng each GST protein; room temperature 30 min (heterodimers 4 C); 6% PAGE 0.25x TBE
# Details: protein: recombinant; tags: GST (N-terminal, pGEX-6P-1); label: 32P-dCTP fill-in of the 5' (dG)5 overhangs of both strands (Methods; control probes are given with GGG)
# Outline: (§1)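 Transcription factor DNA-binding domains carrying a GST tag were expressed in E. coli BL21, purified on glutathione-sepharose and tested against annealed candidate cis-element oligonucleotides labelled with 32P-dCTP. Each reaction held 20 ng protein, 40,000–50,000 cpm probe and 50 ng poly-dIdC in HEPES/KCl glycerol buffer with BSA and detergent, incubated 30 min at room temperature, then run on 6% polyacrylamide in 0.25×TBE at 4°C. DNA binding was scored as the radioactivity of the band in the expected shift region, read on a phosphor imager.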
row,Binder,binding result
1,B1,binds
2,B2,binds
3,B3,no binding
4,B4,binds
5,B5,no binding
6,B6,binds
7,B7,no binding
8,B8,no binding
9,B9,no binding
10,B10,binds
11,B11,binds
12,B12,no binding
13,B13,binds
14,B14,no binding
15,B15,no binding
16,B16,binds
17,B17,binds
18,B18,no binding
19,B19,no binding
20,B20,no binding
21,B21,binds
22,B22,binds
23,B23,no binding
24,B24,binds
25,B25,binds

# Target: Pax6 DNA-binding domain (BD-Pax6) (Mus musculus (B6), UniProt P63015 190-289)
# Sequence (P63015 190-289): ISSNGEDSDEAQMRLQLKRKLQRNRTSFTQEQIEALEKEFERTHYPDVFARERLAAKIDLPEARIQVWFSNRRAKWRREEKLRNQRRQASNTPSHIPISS
# Test: as above
# Details: protein: recombinant; tags: GST (N-terminal, pGEX-6P-1); label: 32P-dCTP fill-in of the 5' (dG)5 overhangs of both strands (Methods; control probes are given with GGG)
# Outline: as §1
row,Binder,binding result
1,B1,no binding
2,B2,binds
3,B3,binds
4,B4,no binding
5,B5,no binding
6,B6,binds
7,B7,no binding
8,B8,no binding
9,B9,no binding
10,B10,binds
11,B11,binds
12,B12,no binding
13,B13,no binding
14,B14,binds
15,B15,binds
16,B16,binds
17,B17,no binding
18,B18,no binding
19,B19,no binding
20,B20,no binding
21,B21,binds
22,B22,binds
23,B23,binds
24,B24,binds
25,B25,binds

# Target: T2, Brn2 DNA-binding domain (BD-Brn2)
# Test: as above
# Details: protein: recombinant; tags: GST (N-terminal, pGEX-6P-1); label: 32P-dCTP fill-in of the 5' (dG)5 overhangs of both strands (Methods; control probes are given with GGG)
# Outline: as §1
row,Binder,binding result
1,B1,no binding
2,B2,binds
3,B3,no binding
4,B4,no binding
5,B5,no binding
6,B6,no binding
7,B7,no binding
8,B8,no binding
9,B9,no binding
10,B10,no binding
11,B11,binds
12,B12,no binding
13,B13,no binding
14,B14,no binding
15,B15,no binding
16,B16,binds
17,B17,binds
18,B18,no binding
19,B19,no binding
20,B20,no binding
21,B21,binds
22,B22,no binding
23,B23,no binding
24,B24,binds
25,B25,binds
